We go through one substance from US8114627.

For data set [1], the target named is [Leu1, Thr2]-63-desulfo-hirudin (Lepirudin (Refludan)) (UniProt P01050).
The target of data set [2] is sulfo-hirudin ([Leu1, Thr2]-hirudin with sulfotyrosine at position 63, expressed in E. coli) (UniProt P01050).

human α-thrombin (Diapharma): the “cleavage of the fluorogenic substrate by thrombin (fluorescence intensity over time)” value in data set [1] is “Cleavage of the fluorogenic substrate by thrombin, whose activity is inhibited to different degrees by sulfo-hirudin and desulfo-hirudin”; in data set [2] it was “Cleavage of the fluorogenic substrate by thrombin, whose activity is inhibited to different degrees by sulfo-hirudin and desulfo-hirudin”.
